Reference: patent publication US20180231560A1

Biological target: c-MET protein (Homo sapiens (Human)) (UniProt P08581)
Assay: immunomagnetic capture of spiked c-MET expressing cell lines by anti-c-MET ferrofluid

UniProt P08581, sequence (P08581 25-1390 limits assumed): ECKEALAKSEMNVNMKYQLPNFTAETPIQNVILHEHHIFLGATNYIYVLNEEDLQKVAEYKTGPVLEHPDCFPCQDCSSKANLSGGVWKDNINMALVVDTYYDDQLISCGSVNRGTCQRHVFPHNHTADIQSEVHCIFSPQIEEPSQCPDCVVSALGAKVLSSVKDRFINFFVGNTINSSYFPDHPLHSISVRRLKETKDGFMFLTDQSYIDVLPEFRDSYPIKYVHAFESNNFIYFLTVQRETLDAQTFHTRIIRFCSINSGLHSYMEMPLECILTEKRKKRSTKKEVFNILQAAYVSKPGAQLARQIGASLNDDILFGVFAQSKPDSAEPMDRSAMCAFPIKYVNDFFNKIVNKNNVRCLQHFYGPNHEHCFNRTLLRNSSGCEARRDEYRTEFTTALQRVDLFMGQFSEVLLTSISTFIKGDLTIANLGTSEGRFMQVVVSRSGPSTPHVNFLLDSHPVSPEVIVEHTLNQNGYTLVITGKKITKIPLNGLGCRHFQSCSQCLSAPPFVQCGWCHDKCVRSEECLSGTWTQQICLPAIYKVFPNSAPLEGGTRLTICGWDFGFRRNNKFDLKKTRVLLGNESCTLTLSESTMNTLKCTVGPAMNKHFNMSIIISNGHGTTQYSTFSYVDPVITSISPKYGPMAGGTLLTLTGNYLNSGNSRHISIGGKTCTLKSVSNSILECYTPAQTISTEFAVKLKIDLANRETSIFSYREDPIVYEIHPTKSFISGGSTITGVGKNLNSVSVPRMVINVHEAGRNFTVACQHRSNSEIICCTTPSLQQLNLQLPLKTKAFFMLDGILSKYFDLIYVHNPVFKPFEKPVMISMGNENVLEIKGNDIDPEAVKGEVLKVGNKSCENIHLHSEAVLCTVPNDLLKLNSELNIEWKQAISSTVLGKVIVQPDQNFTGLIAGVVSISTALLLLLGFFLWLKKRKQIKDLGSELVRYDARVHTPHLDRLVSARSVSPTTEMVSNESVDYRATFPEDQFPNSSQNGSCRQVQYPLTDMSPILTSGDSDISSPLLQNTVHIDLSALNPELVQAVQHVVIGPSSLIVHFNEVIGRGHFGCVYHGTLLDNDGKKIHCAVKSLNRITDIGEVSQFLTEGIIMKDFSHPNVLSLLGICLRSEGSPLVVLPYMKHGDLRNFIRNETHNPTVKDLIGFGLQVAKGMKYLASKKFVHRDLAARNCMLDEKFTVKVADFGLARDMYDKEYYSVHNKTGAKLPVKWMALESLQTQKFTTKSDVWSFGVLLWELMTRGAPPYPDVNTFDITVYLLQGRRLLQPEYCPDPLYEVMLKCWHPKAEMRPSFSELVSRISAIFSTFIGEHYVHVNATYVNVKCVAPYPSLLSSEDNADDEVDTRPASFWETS

recovery of c-MET cells: 20 to 40%
Substance: HGF R/c-MET Antibody clone L6E7 (Cell Signaling Technologies), as anti-c-MET ferrofluid
